Results: US20140087995A1 (published 2014)
Numbered stars: 1 amine (or outer) side, 2 acyl side, 3 side chain; on linkers, the order of the positions; unused ones are H or OH. Bridge positions count the residues as written; N and C are the ends. Side chains are listed from the residue outwards. Ends that are not written are not given here. * marks the point of attachment. C20 diacid = O=C(O)CCCCCCCCCCCCCCCCCCC(=O)*; γGlu = O=C(O)[C@H](CCC(=O)[*:2])N[*:1]; AEEA = NCCOCCOCC(=O)O

T1: human calcitonin receptor (human, UniProt P30988 25-474)
T1 construct: whole, on cells; Used as cell membranes; also called hCTR; hCT
T1 sequence (looked up): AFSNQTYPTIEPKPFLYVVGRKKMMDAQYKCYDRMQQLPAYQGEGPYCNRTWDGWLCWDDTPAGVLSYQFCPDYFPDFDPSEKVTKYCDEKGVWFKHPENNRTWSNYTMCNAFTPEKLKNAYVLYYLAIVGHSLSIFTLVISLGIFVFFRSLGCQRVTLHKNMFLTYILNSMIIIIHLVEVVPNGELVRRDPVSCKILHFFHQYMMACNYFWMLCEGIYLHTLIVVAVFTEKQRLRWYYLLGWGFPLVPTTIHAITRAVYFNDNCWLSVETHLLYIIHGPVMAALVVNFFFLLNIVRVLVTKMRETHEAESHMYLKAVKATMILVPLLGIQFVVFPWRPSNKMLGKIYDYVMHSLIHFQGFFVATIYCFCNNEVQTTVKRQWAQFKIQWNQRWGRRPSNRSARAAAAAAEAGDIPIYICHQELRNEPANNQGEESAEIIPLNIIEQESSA


Assays:
[1] = target: T1, human calcitonin receptor; assay: SPA competition on BHK cell membranes, 125I-calcitonin as radioligand (Assay VII)
In short: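 BHK hCTR membranes 35 ng/μL + SPA beads 0.05 mg/well; buffer 50 mM Hepes pH 7.4, 1 mM CaCl2, 5 mM MgCl₂, 0.1% OA, 0.02% Tween20. 120 min, 25° C., shaking. Scintillation count; IC50 by one-site binding competition.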

[2] = target: T1, human calcitonin receptor; assay: ratio of hCTR IC50 to hAmylin-R IC50 (reference: human amylin receptor)
In short: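 Scintillation proximity competition binding on cell membranes at 35 ng/μL with SPA beads, in 50 mM Hepes pH 7.4, 1 mM CaCl2, 5 mM MgCl₂, 0.1% OA, 0.02% Tween20. Incubated 120 min at 25° C with shaking. IC₅₀ from one-site competition fit.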

| IC50 [1] [nM] | Ratio hCT/hAmylin binding [2] | Binder |
| --- | --- | --- |
| 19.8 | 68.1 | K([AEEA-γGlu-C20 diacid])CNTATCATQRLAHFLRHSSPNFGAIPSSTNVGHNTY-NH2 (disulfide 2-7; N-terminus assumed; SMILES CC[C@H](C)[C@H](NC(=O)[C@H](C)NC(=O)CNC(=O)[C@H](Cc1ccccc1)NC(=O)[C@H](CC(N)=O)NC(=O)[C@@H]1CCCN1C(=O)[C@H](CO)NC(=O)[C@H](CO)NC(=O)[C@H](Cc1c[nH]cn1)NC(=O)[C@H](CCCNC(=N)N)NC(=O)[C@H](CC(C)C)NC(=O)[C@H](Cc1ccccc1)NC(=O)[C@H](Cc1c[nH]cn1)NC(=O)[C@H](C)NC(=O)[C@H](CC(C)C)NC(=O)[C@H](CCCNC(=N)N)NC(=O)[C@H](CCC(N)=O)NC(=O)[C@@H](NC(=O)[C@H](C)NC(=O)[C@@H]1CSSC[C@H](NC(=O)[C@@H](N)CCCCNC(=O)COCCOCCNC(=O)CC[C@H](NC(=O)CCCCCCCCCCCCCCCCCCC(=O)O)C(=O)O)C(=O)N[C@@H](CC(N)=O)C(=O)N[C@@H]([C@@H](C)O)C(=O)N[C@@H](C)C(=O)N[C@@H]([C@@H](C)O)C(=O)N1)[C@@H](C)O)C(=O)N1CCC[C@H]1C(=O)N[C@@H](CO)C(=O)N[C@@H](CO)C(=O)N[C@H](C(=O)N[C@@H](CC(N)=O)C(=O)N[C@H](C(=O)NCC(=O)N[C@@H](Cc1c[nH]cn1)C(=O)N[C@@H](CC(N)=O)C(=O)N[C@H](C(=O)N[C@@H](Cc1ccc(O)cc1)C(N)=O)[C@@H](C)O)C(C)C)[C@@H](C)O, also called compound 80) |
| 8.68 | 65.3 | K([AEEA-γGlu-C20 diacid])CNTATCATQRLAHFLRHSSPNFGAIPSSTNVGSNTY-NH2 (disulfide 2-7; N-terminus assumed; SMILES CC[C@H](C)[C@H](NC(=O)[C@H](C)NC(=O)CNC(=O)[C@H](Cc1ccccc1)NC(=O)[C@H](CC(N)=O)NC(=O)[C@@H]1CCCN1C(=O)[C@H](CO)NC(=O)[C@H](CO)NC(=O)[C@H](Cc1c[nH]cn1)NC(=O)[C@H](CCCNC(=N)N)NC(=O)[C@H](CC(C)C)NC(=O)[C@H](Cc1ccccc1)NC(=O)[C@H](Cc1c[nH]cn1)NC(=O)[C@H](C)NC(=O)[C@H](CC(C)C)NC(=O)[C@H](CCCNC(=N)N)NC(=O)[C@H](CCC(N)=O)NC(=O)[C@@H](NC(=O)[C@H](C)NC(=O)[C@@H]1CSSC[C@H](NC(=O)[C@@H](N)CCCCNC(=O)COCCOCCNC(=O)CC[C@H](NC(=O)CCCCCCCCCCCCCCCCCCC(=O)O)C(=O)O)C(=O)N[C@@H](CC(N)=O)C(=O)N[C@@H]([C@@H](C)O)C(=O)N[C@@H](C)C(=O)N[C@@H]([C@@H](C)O)C(=O)N1)[C@@H](C)O)C(=O)N1CCC[C@H]1C(=O)N[C@@H](CO)C(=O)N[C@@H](CO)C(=O)N[C@H](C(=O)N[C@@H](CC(N)=O)C(=O)N[C@H](C(=O)NCC(=O)N[C@@H](CO)C(=O)N[C@@H](CC(N)=O)C(=O)N[C@H](C(=O)N[C@@H](Cc1ccc(O)cc1)C(N)=O)[C@@H](C)O)C(C)C)[C@@H](C)O, also called compound 69) |
| 5.38 | 51.7 | K([AEEA-γGlu-C20 diacid])CNTATCATQRLASFLRHSSPNFGAIPSSTPVGSNTY-NH2 (disulfide 2-7; N-terminus assumed; SMILES CC[C@H](C)[C@H](NC(=O)[C@H](C)NC(=O)CNC(=O)[C@H](Cc1ccccc1)NC(=O)[C@H](CC(N)=O)NC(=O)[C@@H]1CCCN1C(=O)[C@H](CO)NC(=O)[C@H](CO)NC(=O)[C@H](Cc1c[nH]cn1)NC(=O)[C@H](CCCNC(=N)N)NC(=O)[C@H](CC(C)C)NC(=O)[C@H](Cc1ccccc1)NC(=O)[C@H](CO)NC(=O)[C@H](C)NC(=O)[C@H](CC(C)C)NC(=O)[C@H](CCCNC(=N)N)NC(=O)[C@H](CCC(N)=O)NC(=O)[C@@H](NC(=O)[C@H](C)NC(=O)[C@@H]1CSSC[C@H](NC(=O)[C@@H](N)CCCCNC(=O)COCCOCCNC(=O)CC[C@H](NC(=O)CCCCCCCCCCCCCCCCCCC(=O)O)C(=O)O)C(=O)N[C@@H](CC(N)=O)C(=O)N[C@@H]([C@@H](C)O)C(=O)N[C@@H](C)C(=O)N[C@@H]([C@@H](C)O)C(=O)N1)[C@@H](C)O)C(=O)N1CCC[C@H]1C(=O)N[C@@H](CO)C(=O)N[C@@H](CO)C(=O)N[C@H](C(=O)N1CCC[C@H]1C(=O)N[C@H](C(=O)NCC(=O)N[C@@H](CO)C(=O)N[C@@H](CC(N)=O)C(=O)N[C@H](C(=O)N[C@@H](Cc1ccc(O)cc1)C(N)=O)[C@@H](C)O)C(C)C)[C@@H](C)O, also called compound 73) |
| 5.66 | 64.4 | K([AEEA-γGlu-C20 diacid])CNTATCATQRLAHFLRHSSPNFGAIPSSTNVGPNTY-NH2 (disulfide 2-7; N-terminus assumed; SMILES CC[C@H](C)[C@H](NC(=O)[C@H](C)NC(=O)CNC(=O)[C@H](Cc1ccccc1)NC(=O)[C@H](CC(N)=O)NC(=O)[C@@H]1CCCN1C(=O)[C@H](CO)NC(=O)[C@H](CO)NC(=O)[C@H](Cc1c[nH]cn1)NC(=O)[C@H](CCCNC(=N)N)NC(=O)[C@H](CC(C)C)NC(=O)[C@H](Cc1ccccc1)NC(=O)[C@H](Cc1c[nH]cn1)NC(=O)[C@H](C)NC(=O)[C@H](CC(C)C)NC(=O)[C@H](CCCNC(=N)N)NC(=O)[C@H](CCC(N)=O)NC(=O)[C@@H](NC(=O)[C@H](C)NC(=O)[C@@H]1CSSC[C@H](NC(=O)[C@@H](N)CCCCNC(=O)COCCOCCNC(=O)CC[C@H](NC(=O)CCCCCCCCCCCCCCCCCCC(=O)O)C(=O)O)C(=O)N[C@@H](CC(N)=O)C(=O)N[C@@H]([C@@H](C)O)C(=O)N[C@@H](C)C(=O)N[C@@H]([C@@H](C)O)C(=O)N1)[C@@H](C)O)C(=O)N1CCC[C@H]1C(=O)N[C@@H](CO)C(=O)N[C@@H](CO)C(=O)N[C@H](C(=O)N[C@@H](CC(N)=O)C(=O)N[C@H](C(=O)NCC(=O)N1CCC[C@H]1C(=O)N[C@@H](CC(N)=O)C(=O)N[C@H](C(=O)N[C@@H](Cc1ccc(O)cc1)C(N)=O)[C@@H](C)O)C(C)C)[C@@H](C)O, also called compound 68) |
| 79.9 | 101 | K([AEEA-γGlu-C20 diacid])CNTATCATQRLAKFLRHSSPNFGAIPSSTPVGSNTY-NH2 (disulfide 2-7; N-terminus assumed; SMILES CC[C@H](C)[C@H](NC(=O)[C@H](C)NC(=O)CNC(=O)[C@H](Cc1ccccc1)NC(=O)[C@H](CC(N)=O)NC(=O)[C@@H]1CCCN1C(=O)[C@H](CO)NC(=O)[C@H](CO)NC(=O)[C@H](Cc1c[nH]cn1)NC(=O)[C@H](CCCNC(=N)N)NC(=O)[C@H](CC(C)C)NC(=O)[C@H](Cc1ccccc1)NC(=O)[C@H](CCCCN)NC(=O)[C@H](C)NC(=O)[C@H](CC(C)C)NC(=O)[C@H](CCCNC(=N)N)NC(=O)[C@H](CCC(N)=O)NC(=O)[C@@H](NC(=O)[C@H](C)NC(=O)[C@@H]1CSSC[C@H](NC(=O)[C@@H](N)CCCCNC(=O)COCCOCCNC(=O)CC[C@H](NC(=O)CCCCCCCCCCCCCCCCCCC(=O)O)C(=O)O)C(=O)N[C@@H](CC(N)=O)C(=O)N[C@@H]([C@@H](C)O)C(=O)N[C@@H](C)C(=O)N[C@@H]([C@@H](C)O)C(=O)N1)[C@@H](C)O)C(=O)N1CCC[C@H]1C(=O)N[C@@H](CO)C(=O)N[C@@H](CO)C(=O)N[C@H](C(=O)N1CCC[C@H]1C(=O)N[C@H](C(=O)NCC(=O)N[C@@H](CO)C(=O)N[C@@H](CC(N)=O)C(=O)N[C@H](C(=O)N[C@@H](Cc1ccc(O)cc1)C(N)=O)[C@@H](C)O)C(C)C)[C@@H](C)O, also called compound 74) |
